In the assay the target is T1, MexZ (LexA DNA-binding domain fusion encoded by pSF004, pMS604::mexZ) (P. aeruginosa, UniProt G3XCU9 1-210).
T1 construct: also called repressor of mexXY; mexZ product; source: E. coli SU202, bacterial two-hybrid fusion expressed from pSF004 (pMS604::mexZ)
T1 sequence: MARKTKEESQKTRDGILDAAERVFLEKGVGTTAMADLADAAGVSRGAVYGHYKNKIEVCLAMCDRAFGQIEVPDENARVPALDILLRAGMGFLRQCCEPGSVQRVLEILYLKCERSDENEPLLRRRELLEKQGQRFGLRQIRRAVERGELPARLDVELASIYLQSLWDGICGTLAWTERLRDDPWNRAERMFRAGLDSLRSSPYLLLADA
Kind of assay: two-hybrid; bacterial LexA-based two-hybrid in E. coli SU202 (pMS604 and pDP804 derivatives); cells grown to mid-log phase in L-broth with 5 mM IPTG; interaction represses lacZ, read as reduced β-galactosidase activity. The following applies: partners not purified.

We go through one molecule from article PMC3575510, “Antibiotic Inducibility of the mexXY Multidrug Efflux Operon of Pseudomonas aeruginosa: Involvement of the MexZ Anti-Repressor ArmZ” (PLoS ONE, 2013).

B1: ArmZ (PA5471) wild type (LexA DNA-binding domain fusion encoded by pSF005, pDP804::armZ) (natural protein)
chain: MGNYIKPLSAGVALIASDSTWIEGKAIQQLQTTAELDGMCRVVGLPDLHPGRGYPVGAAFFSVGRFYPALVGNDIGCGMALWETGLALGKLSADKLEKRLGNLDLPLDETWSDCIEALDLPAREHWRALGTIGGGNHFAELQQVETVFDQAALHALGLDADRLQLLVHSGSRGLGQAILQEHVSLHGHAGLLDGSLEASAYLARHADALRFAEGNRQLIARRILERLRCDGLELLDINHNLVVPAQVDGVDGWLHRKGATPADQGVLVIPGSRGDYSYLVEPVPSAQSLFSLAHGAGRKWQRGECRERLAARFSVDQLGRTRLGSRVICGDRQLIYEEAPEAYKGIDSVVGALLEAGLLRLVARLKPVLTYKTRGECCR
notes: also called anti-repressor MexZ; ArmZ (WT); source: E. coli SU202, bacterial two-hybrid fusion expressed from pSF005 (pDP804::armZ)
Consider B1, for which the “fold reduction of β-galactosidase activity (relative to SU202 carrying the mexZ plasmid only)” value came to 3 fold.
